Positions count from the first letter of the chain named.

Assay [1] addresses T1, wild-type human ALK2 on cells (cDNA in pcDEF3) (human, UniProt Q04771 21-509).
T1 construct: also called wild-type ALK2; ALK2 (WT)
T1 sequence: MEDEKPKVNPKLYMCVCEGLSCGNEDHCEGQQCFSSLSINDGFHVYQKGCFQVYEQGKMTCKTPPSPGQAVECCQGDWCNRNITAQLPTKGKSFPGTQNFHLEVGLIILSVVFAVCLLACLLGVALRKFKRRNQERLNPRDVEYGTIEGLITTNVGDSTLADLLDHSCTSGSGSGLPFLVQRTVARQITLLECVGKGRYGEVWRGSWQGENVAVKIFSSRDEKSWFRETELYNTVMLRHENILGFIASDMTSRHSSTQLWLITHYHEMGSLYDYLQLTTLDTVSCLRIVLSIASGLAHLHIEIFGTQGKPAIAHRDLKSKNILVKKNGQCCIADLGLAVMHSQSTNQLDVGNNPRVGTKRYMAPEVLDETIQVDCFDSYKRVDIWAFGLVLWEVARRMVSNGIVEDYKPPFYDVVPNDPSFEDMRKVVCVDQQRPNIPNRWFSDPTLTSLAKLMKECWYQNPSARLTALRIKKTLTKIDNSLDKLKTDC
Nature of the assay: immunofluorescence (legend of FIG. 4). In short, it runs like this:
(§1)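 C2C12 mouse myoblasts transfected overnight with human ALK2 cDNA (wild-type or FOP variants incl. G325A, pcDEF3 vector). Cells formalin-fixed, goat-serum blocked, stained 1 h RT with purified IgG at 10 µg/mL, then Alexa 594 anti-rat IgG 1 h; DAPI nuclei, fluorescence microscopy read-out.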

For assay [2], the target named is T2, human ALK2-G325A on cells (human, UniProt Q04771 21-509).
T2 sequence: T1 sequence with G305A
Nature of the assay: immunofluorescence (legend of FIG. 4). In outline:
as §1

Assay [3] has as its target T3, human ALK2-G328R on cells (human, UniProt Q04771 21-509).
T3 sequence: T1 sequence with G308R
Nature of the assay: immunofluorescence (legend of FIG. 4). In short, it runs like this: as §1

Assay [4] addresses T4, human ALK2-R202I on cells (human, UniProt Q04771 21-509).
T4 sequence: T1 sequence with R182I
As to the kind of experiment: immunofluorescence on transfected, formalin-fixed C2C12 cells, IgG at 10 µg/mL, Alexa 594 anti-rat IgG. The procedure: Mouse C2C12 cells were seeded into a 96-well plate (Greiner Bio-One) at 0.5×10³ cells/well, and cultured in 15% FBS-containing DMEM medium overnight under the conditions of 5% CO₂ at 37° C. On the following day, the C2C12 cells were transfected with each of a wild-type human ALK2 cDNA integrated into pcDEF3; pcDEF3/human ALK2-L196P, pcDEF3/human ALK2-P197_F198delinsL, pcDEF3/human ALK2-R202I, pcDEF3/human ALK2-R206H, pcDEF3/human ALK2-Q207E, pcDEF3/human ALK2-R258S, pcDEF3/human ALK2-G325A, pcDEF3/human ALK2-G328E, pcDEF3/human ALK2-G328R, pcDEF3/human ALK2-G328W, pcDEF3/human ALK2-G356D, and pcDEF3/human ALK2-R375P, which are variants identified in FOP; and pcDEF3 as a control, using Lipofectamine 2000 (Invitrogen), and further cultured overnight.
The C2C12 cells were fixed with 10% neutral formalin (Nacalai Tesque, Japan) for 20 minutes at room temperature, and then blocked with 10% goat normal serum for 30 minutes. After the blocking agent was removed, purified IgG diluted to 10 μg/mL with the blocking agent was added, and the cells were left for 1 hour at room temperature. After the cells were washed with PBS three times, Goat Alexa 594-conjugated anti-rat IgG (Invitrogen) diluted to 1:1000 with the blocking agent was added, and the cells were left for 1 hour at room temperature. After the cells were washed with PBS three times, the cells were fixed with 10% neutral formalin for 15 minutes at room temperature, and nuclear-stained with DAPI (LifeTechnologies). Fluorescent signals were analyzed with a fluorescence microscope BZ-9000 (Keyence).

B1: rat anti-ALK2 monoclonal antibody A2-15A (antibody, V domains shown)
VH: EVQLVESGGGLVQPGRSLKLSCAASGFTFSHYYMAWVRQAPTKGLEWVASITNSGGSINYRDSVKGRFTISRDNAKSTLYLQMDSLRSEDTATYYCTREGGENYGGYPPFAYWGQGTLVTVSS
VL: DIVLTQSPALAVSLGQRATISCRANQGVSLSRYNLMHWYQQKPGQKPKLLIYRSSNLASGIPARFSGSGSGTDFTLTINPVQADDIATYYCQQSRESPFTFGAGTKLELKR
notes: Rat monoclonal IgG from a hybridoma; also called 15A6
B1: the binding result in assay [1], in assay [2] and in assay [3] was “binds” each time.

B2: rat anti-ALK2 monoclonal antibody A2-27D (antibody, V domains shown)
VH: EVQLVESGGGLVQPGRSLKLSCLASGSTFSNYGMKWIRQAPGKGLEWVASISRSSTYIYYADTVKGRFTISRDNARNTLYLQMTSLRSEDTALYYCAAAISTPFYWYFDFWGPGTVVTVSS
VL: EIVLTQSPTTMAASPGEKVTLNCLASSSVSYMTWYQQKSGASPKLWIYGTSNLASGVPNRFSGSGSGTSYSLAISSMEAEDVATYYCLHLTSYPPYTFGAGTKLELKR
notes: Rat monoclonal IgG from a hybridoma; also called 27D11
As to B2, in assay [4], the binding result was “binds”.

B3: rat anti-ALK2 monoclonal antibody A2-25C (antibody, V domains shown)
VH: EVQLVESGGGLVQPGGSLKLSCAASGFTFSYYAMSWVCQAPTKGLEWVASISRGGDNTYYRDTVKGRFTTSRDNAKNTLYLQMDSLRSEDTATYYCARLNYNNYFDYWGQGVMVTVSS
VL: DIQMTQSPASLSASLEEIVTITCQASQDIGNWLSWYQQKPGKSPQLLIYGATSLADGVPSRFSGSRSGTQYSLKISRLRVEDIGIYYCLQAYSAPFTFGSGTKLEIKR
notes: Rat monoclonal IgG from a hybridoma; also called 25C11
For B3, in assay [4], the binding result is reported as “binds”.

B4: rat anti-ALK2 monoclonal antibody A2-11E (antibody, V domains shown)
VH: EVQLVETGGGLVQPGRSLKLSCVASGFTFSNYYMYWIRQAPGKGLEWISSINTDGGSTYYPDSVKGRFAISRDNAENTVYLQMNSLRSEDTATYYCAKSTPNIPLAYWGQGTLVTVSS
VL: DIQMTQSPSLLSASVGDRVTLSCKASQNIYKYLNWFQQKLGEAPKLLIYYSNSLQTGIPSRFSGSGSGTDFTLTISSLQPEDVAIYFCFQYSSGPTFGPGTKLELKR
notes: Rat monoclonal IgG from a hybridoma; also called 11E2
Take B4: the binding result in assay [1], in assay [2] and in assay [3] was “binds” throughout.

(Values after US20220041738A1 (SAITAMA MEDICAL UNIVERSITY, published 2022).)
